In general, EC50 refers to the midpoint of the concentration-response curve.

The target in experiment [1] is IgG1-005-E345R/E430G/S440K (human). Briefly: HP-SEC in PBS pH 7.4, equimolar mixture of the two antibodies.
In experiment [2] the target is IgG1-005-E345R/E430G/Y436I/S440K (human). The experiment is described as above.
The target in experiment [3] is Protein A column (HiTrap MabSelectSuRe). Briefly: 1.0 mL HiTrap MabSelectSuRe column, pH 5.0 against neutral pH.
In experiment [4] the target is Protein A (Staphylococcus aureus) (UniProt P38507). Briefly: ratio of the concentrations by Octet protein A and by A280.
The target in experiment [5] is C1q (human) (UniProt P02745). The experiment is described as follows: ELISA: antibody dilution series coated, 3% pooled human serum as source of C1q, anti-C1q detection. Background: In an ELISA, binding on a coated surface is turned into a signal by an enzyme label.
C1q (human), sequence (P02745 23-245 limits assumed, chain 1 of 3): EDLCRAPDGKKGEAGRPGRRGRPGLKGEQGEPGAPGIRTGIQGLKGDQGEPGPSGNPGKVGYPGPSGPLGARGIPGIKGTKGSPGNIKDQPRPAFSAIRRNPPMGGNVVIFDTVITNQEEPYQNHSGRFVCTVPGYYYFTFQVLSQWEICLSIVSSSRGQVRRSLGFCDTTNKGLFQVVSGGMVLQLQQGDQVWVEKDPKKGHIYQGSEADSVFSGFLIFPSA
C1q (human), sequence (P02746 28-253 limits assumed, chain 2 of 3, further chain): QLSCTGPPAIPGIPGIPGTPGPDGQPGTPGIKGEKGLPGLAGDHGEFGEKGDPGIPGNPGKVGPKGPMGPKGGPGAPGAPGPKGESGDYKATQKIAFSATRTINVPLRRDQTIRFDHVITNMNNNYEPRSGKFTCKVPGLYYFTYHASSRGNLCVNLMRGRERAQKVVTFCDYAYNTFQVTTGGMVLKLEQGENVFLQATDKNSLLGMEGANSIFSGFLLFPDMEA
C1q (human), sequence (P02747 29-245 limits assumed, chain 3 of 3, further chain): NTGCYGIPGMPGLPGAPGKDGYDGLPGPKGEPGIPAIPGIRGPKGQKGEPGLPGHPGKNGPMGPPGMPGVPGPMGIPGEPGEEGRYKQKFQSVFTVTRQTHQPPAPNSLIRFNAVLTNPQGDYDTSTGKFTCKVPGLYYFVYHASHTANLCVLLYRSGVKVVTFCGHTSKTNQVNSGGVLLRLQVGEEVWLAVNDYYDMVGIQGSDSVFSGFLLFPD
In experiment [6] the target is FcyRIIIa receptor, V158 (high affinity) variant (UniProt P08637). The experiment is described as follows: cell-based or functional assay.
FcyRIIIa receptor, V158 (high affinity) variant, sequence (P08637 other isoform, or with tags, fused parts or gaps mutant limits assumed): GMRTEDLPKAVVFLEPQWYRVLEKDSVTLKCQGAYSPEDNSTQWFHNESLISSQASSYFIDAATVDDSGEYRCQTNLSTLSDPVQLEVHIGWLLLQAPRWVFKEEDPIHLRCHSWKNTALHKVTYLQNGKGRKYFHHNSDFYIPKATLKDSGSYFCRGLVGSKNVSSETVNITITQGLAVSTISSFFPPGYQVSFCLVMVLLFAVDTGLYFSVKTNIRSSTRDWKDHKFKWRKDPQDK
Experiment [7] has as its target Protein A column (HiTrap MabSelectSuRe). The experiment is described as follows: saturated 1.0 mL HiTrap MabSelectSuRe column loaded at pH 5.0 (antibody monomeric), A280 of the dialyzed eluate.
Experiment [8] concerns the target Protein A (Staphylococcus aureus) (UniProt P38507). The experiment is described as follows: apparent IgG concentration on Octet QK protein A sensortips against an IgG standard curve; A280 gave 2905 µg/ml. A general note: Biolayer interferometry detects binding as a change in optical thickness at a sensor tip.
In experiment [9] the target is Protein A column (HiTrap MabSelectSuRe). Briefly: saturated 1.0 mL HiTrap MabSelectSuRe column loaded at neutral pH (hexamerization allowed), A280 of the dialyzed eluate.
Experiment [10] has as its target IgG1-005-E345R/E430G/S440Y (human). Briefly: dynamic light scattering, 2.86 mg/mL in PBS pH 7.4, self-association.
Experiment [11] shares this target. Briefly: HP-SEC with multiple angle light scattering (MALS), self-association. In general terms: In gel filtration, larger molecules generally elute earlier.

“IgG1-005-E345R/E430G/K439E/S440Y (antibody)”: the values for the multimers (HP-SEC) in experiment [1] and in experiment [2] were 65% and 93%, respectively.

IgG1-005-E345R/E430G/S440Y (antibody) showed an increase of protein yield, binding at pH 5.0 against neutral pH in experiment [3] of 36%. In addition, in [4], the A280/Protein A x 100 (%) is 71%. Also, in [5], the EC50 was determined as 0.52 µg/mL. In experiment [6], this substance gave an EC50 (ng/mL), ADCC reporter assay with Raji target cells of 36 ng/mL and a Maximal signal (RLU), ADCC reporter assay with Raji target cells of 394000 RLU. The yield of Protein A purification at 1.0 mL scale in experiment [7] was 29.1 mg. For the same substance, the Octet-Protein A in experiment [8] came to 2050 µg/mL. The yield of Protein A purification at 1.0 mL scale in [9] stood at 21.4 mg. In experiment [10], the apparent MW in solution came out at 876 kDa and the monomeric subunits per complex (monomeric subunits) was 6.17. In experiment [11], the apparent average MW of the multimeric peak was 772 kDa and the monomeric subunits per complex (monomeric subunits) is 5.4.

These data come from patent EP3632462A1.
